We go through eleven molecules from patent US11873336 (TENEOBIO, dated 2024).

Assay [1] has as its target T1, human CD22 protein (recombinant CD22 extracellular domain) (human, UniProt P20273 20-687).
T1 construct: extracellular domain; also called SIGLEC-2
T1 sequence (looked up): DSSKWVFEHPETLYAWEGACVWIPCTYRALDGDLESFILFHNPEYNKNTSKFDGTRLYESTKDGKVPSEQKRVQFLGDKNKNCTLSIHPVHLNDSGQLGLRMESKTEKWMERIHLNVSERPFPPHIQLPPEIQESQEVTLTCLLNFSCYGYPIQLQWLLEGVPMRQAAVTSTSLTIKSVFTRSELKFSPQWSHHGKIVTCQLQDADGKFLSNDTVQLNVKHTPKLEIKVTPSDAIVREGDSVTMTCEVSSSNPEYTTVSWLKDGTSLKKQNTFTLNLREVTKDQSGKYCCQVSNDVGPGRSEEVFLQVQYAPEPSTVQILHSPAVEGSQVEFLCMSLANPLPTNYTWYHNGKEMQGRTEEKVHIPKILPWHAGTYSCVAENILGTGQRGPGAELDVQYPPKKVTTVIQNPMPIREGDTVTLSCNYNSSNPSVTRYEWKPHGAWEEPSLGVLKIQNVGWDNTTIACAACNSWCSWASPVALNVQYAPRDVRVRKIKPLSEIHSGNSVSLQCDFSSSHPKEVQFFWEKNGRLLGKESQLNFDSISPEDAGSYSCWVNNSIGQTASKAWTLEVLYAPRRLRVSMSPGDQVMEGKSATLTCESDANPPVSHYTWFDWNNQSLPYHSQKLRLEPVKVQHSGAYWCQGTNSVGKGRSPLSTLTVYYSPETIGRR
The experiment in a line: ELISA on recombinant CD22 extracellular domain and/or cell binding. On the technique in general: In an ELISA, binding on a coated surface is turned into a signal by an enzyme label.

Assay [2] addresses T2, human CD22 on CD22-positive Burkitt's lymphoma cells (Daudi, Raji, Ramos) (human, UniProt P20273 20-847).
T2 construct: whole, on cells; also called CD22+ cells; CD22 positive cells
T2 sequence (looked up): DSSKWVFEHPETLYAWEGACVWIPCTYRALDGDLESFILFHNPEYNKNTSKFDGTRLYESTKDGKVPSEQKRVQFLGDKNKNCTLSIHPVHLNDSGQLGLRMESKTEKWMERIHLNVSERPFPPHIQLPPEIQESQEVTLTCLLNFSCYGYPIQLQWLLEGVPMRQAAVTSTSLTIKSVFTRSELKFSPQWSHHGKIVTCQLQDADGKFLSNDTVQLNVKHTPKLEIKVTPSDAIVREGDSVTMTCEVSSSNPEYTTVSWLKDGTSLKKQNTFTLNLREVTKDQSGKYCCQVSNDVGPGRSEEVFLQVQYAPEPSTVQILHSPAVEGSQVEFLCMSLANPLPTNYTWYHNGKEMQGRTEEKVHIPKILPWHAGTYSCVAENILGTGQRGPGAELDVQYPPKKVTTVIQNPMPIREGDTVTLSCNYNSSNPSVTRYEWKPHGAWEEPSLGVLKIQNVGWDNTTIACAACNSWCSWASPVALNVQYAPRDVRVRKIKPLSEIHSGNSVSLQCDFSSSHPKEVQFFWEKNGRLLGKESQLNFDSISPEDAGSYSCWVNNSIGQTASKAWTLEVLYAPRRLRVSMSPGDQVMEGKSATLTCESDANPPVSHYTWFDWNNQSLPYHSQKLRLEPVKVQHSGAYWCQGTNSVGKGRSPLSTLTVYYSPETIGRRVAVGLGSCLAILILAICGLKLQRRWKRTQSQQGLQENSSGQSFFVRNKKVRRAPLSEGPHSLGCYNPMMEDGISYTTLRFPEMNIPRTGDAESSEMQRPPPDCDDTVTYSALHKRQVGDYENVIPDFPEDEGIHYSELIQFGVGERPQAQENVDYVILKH
Kind of assay: cell binding, Daudi cells. The method, then:
Binding to CD22 positive cells was assessed by flow cytometry (Guava easyCyte 8HT, EMD Millipore) using the Daudi cell line (ATCC). Briefly, 100,000 target cells were stained with a dilution series of purified UniAbs™ for 30 minutes at 4° C. Following incubation, the cells were washed twice with flow cytometry buffer (1×PBS, 1% BSA, 0.1% NaN_3) and stained with goat F(ab')2 anti-human IgG conjugated to R-phycoerythrin (PE) (Southern Biotech, cat. #2042-09) to detect cell-bound antibodies. After a 20-minute incubation at 4° C., the cells were washed twice with flow cytometry buffer and then mean fluorescence intensity (MFI) was measured by flow cytometry. EC50 values were calculated using GraphPad Prism 7. Binding to *cynomolgus* CD22 positive cells was determined using the same protocol with the following modifications: the target cells were from CHO cells stably transfected to express the extracellular domain of *cynomolgus* CD22 and each antibody was tested at a single concentration (~1.7 µg/mL) so EC50 values were not calculated.

B1: anti-CD22 heavy chain-only antibody with the VH of SEQ ID NO: 54 (antibody, V domains shown)
VH: QLQLQESGPGLVKPSETLSLTCTVSGGSISSGDYYWGWIRQPPGKGLEWIGHIYYSGATYYNPSLKNRVTISVDTSRNQFSLKLSSVTAADTAVYYCTREDSSNWRSRGQGTLVTVSS
notes: Heavy chain-only antibody (UniAb), human IgG
Take B1: the binding result in assay [1] and in assay [2] was “binds” in each case.

B2: anti-CD22 heavy chain-only antibody with the VH of SEQ ID NO: 63 (antibody, V domains shown)
VH: QLQLQESGPGLVKPSETLSLTCTVSGGSISSSSYYWGWIRQPPGKGLEWIGSIYYSGSTYYNPSLKSRVTISVDTSKNQFSLKLSSVTAADTAVYYCTREDSSSWRSRGQGTLVTVSS
notes: as for B1
With B2, the binding result in assay [1] and in assay [2] was “binds” throughout.

B3: anti-CD22 heavy chain-only antibody with the VH of SEQ ID NO: 64 (antibody, V domains shown)
VH: QLQLQESGPGLVKPSETLSLTCTVSGGSISSSSYYWGWIRQPPGKGLEWIGHIYYSGATYYNPSLKNRVTISVDTSKNQFSLKLSSVTAADTAVYYCTRDDSSNWRSRGQGTLVTVSS
notes: as for B1
In the case of B3, the binding result in assay [1] and in assay [2] was “binds” in each case.

B4: anti-CD22 heavy chain-only antibody with the VH of SEQ ID NO: 58 (antibody, V domains shown)
VH: QLQLQESGPGLVKPSETLSLTCTVSGGSISSSSYYWGWIRQPPGKGLEWIGSIYYSGSTYYNPSLKSRVTISVDTSRNQFSLNLSSVTAADTAVYYCTREDSSSWRSRGQGTLVTVSS
notes: as for B1
As to B4, the binding result in assay [1] and in assay [2] was “binds” throughout.

B5: anti-CD22 heavy chain-only antibody with the VH of SEQ ID NO: 57 (antibody, V domains shown)
VH: QLQLQESGPGLVKPSETLSLTCTVSGGSISSSSYYWGWIRQPPGKGLEWIGHIYYSGVTYYNPSLKNRVTISVDTSKNQFSLKLSSVTAADTAVYYCTRDDSSNWRSRGQGTLVTVSS
notes: as for B1
With B5, the binding result in assay [1] and in assay [2] was “binds” in each case.

B6: anti-CD22 heavy chain-only antibody with the VH of SEQ ID NO: 65 (antibody, V domains shown)
VH: QLQLQESGPGLVKPSETLSLTCTVSGGSISSSSYYWGWIRQPPGKGLEWIGSIYYSGATYYNPSLKNRVTISVDTSRNQFSLNLSSVTAADTAVYYCTREDSSSWRSRGQGTLVTVSS
notes: as for B1
In the case of B6, the binding result in assay [1] and in assay [2] was “binds” each time.

B7: anti-CD22 heavy chain-only antibody with the VH of SEQ ID NO: 61 (antibody, V domains shown)
VH: QLQLQESGPGLVKPSETLSLTCTVSGGSISSSSYYWGWIRQPPGKGLEWIGSIYYSGATYYNPSLKNRVTISVDTSKNQFSLKLSSVTAADTAVYYCTREDSSSWRSRGQGTLVTVSS
notes: as for B1
Take B7: the binding result in assay [1] and in assay [2] was “binds” throughout.

B8: anti-CD22 heavy chain-only antibody with the VH of SEQ ID NO: 62 (antibody, V domains shown)
VH: QLQLQESGPGLVKPSETLSLTCTVSGGSISSSSYYWGWIRQPPGKGLEWIGHIYYSGATYYNPSLKNRVTISVDTSRNQFSLNLSSVTAADTAVYYCTREDSSSWRSRGQGTLVTVSS
notes: as for B1
As for B8, the binding result in assay [1] and in assay [2] was “binds” in each case.

B9: anti-CD22 heavy chain-only antibody with the VH of SEQ ID NO: 60 (antibody, V domains shown)
VH: QLQLQESGPGLVKPSETLSLTCTVSGGSISSSSYYWGWIRQPPGKGLEWIGSIYYSGSTYYNPSLKSRVTISVDTSKNQFSLKLSSVTAADTAVYYCAREDSSSWRSRGQGTLVTVSS
notes: as for B1
For the molecule B9, the binding result in assay [1] and in assay [2] was “binds” throughout.

B10: anti-CD22 heavy chain-only antibody with the VH of SEQ ID NO: 59 (antibody, V domains shown)
VH: QLQLQESGPGLVKPSETLSLTCTVSGDSISSSSYYWGWIRQPPGKGLEWIGSIYYSGSTYYNPSLKSRVTISVDTSKNQFSLKLSSVTAADTAVYYCTREDSSNWRSRGQGTLVTVSS
notes: as for B1
As for B10, the binding result in assay [1] and in assay [2] was “binds” in each case.

B11: anti-CD22 heavy chain-only antibody with the VH of SEQ ID NO: 56 (antibody, V domains shown)
VH: QLQLQESGPGLVKPSETLSLTCTVSGGSISSSSYYWGWIRQPPGKGLEWIGHIYYSGVTYYNPSLKNRVTISVDTSKNQFSLKLSSVTAADTAAYYCTRDDSSNWRSRGQGTLVTVSS
notes: as for B1
Take B11: the binding result in assay [1] and in assay [2] was “binds” throughout.
